# Tests used:
# Test in all cases: purified protein
# Details in all cases: NADPH 0.1 mM, pH 7.4, 25 °C, 10 mM beta-mercaptoethanol
# purified protein [1] = substrate: O=Cc1ccccc1; type: biochemical, Zea mays
# purified protein [2] = substrate: O=Cc1ccccc1; type: biochemical, Echinochloa colona
# purified protein [3] = substrate: O=Cc1ccccc1; type: biochemical, Oryza sativa
protein,measurement,setting,value
"ZmAKR4 (Zea mays) (protein, full CDS from leaf cDNA in pET32a (vector tag, about 50 kD), E. coli BL21, Ni-NTA) MARHFVLNTGAKIPSVGLGTWQSDPGVVGNAVYAAVKAGYRHIDCARVYGNEKEIGLALKKLFEEGVVKREDLFITSKLWNDHHAPEDVPEALNDSLNDLQLEYLDLYLIHWPFRVKKGTNTSPENFVTPDFPATWGAMEKLYDAGKARAIGVSNFSSKKLGDLLAVARVPPAVDQVECHPGWQQTKLHSFCQSTGVHLTAYSPLGSPGTTWMNGNVLKEPIIISIAEKLGKTSAQVALRWNIQMGHSVLPKSTNEERIKQNLDVYDWSIPDDLLAKFSEIKQARLLRGNFIVNPESVYKTHEELWDGEL",Km,purified protein [1],1060 ± 290 µM
same,kcat,purified protein [1],0.7522 ± 0.0293 s⁻¹
"EcAKR4 (Echinochloa colona) (protein, full CDS from leaf cDNA in pET32a as printed (about 40 kD on gel), E. coli BL21, Ni-NTA) MARHFVLNTGAKIPSVGLGTWQSDPGVVGDAVYAAVKAGYRHIDCARVYGNEKEIGLALKKLFEEGVVKREDLFITSKLWNDHHAPEDVPEALNESLKDLQLDYLDLYLIHWPFRVKKGTNTSPENFITPDIPATWGAMEKLYDAGKARAIGVSNFSSKKLGDLLAVARVPPAVDQVECHPGWQQTKLHNFCQSTGVHLSAYSPLGSPGTTWMNGNVLKEPVIISIAEKLGKTPAQVALRWNIQMGHSVLPKSTNEERIKQNLDVYDWSIPDDLLAKFSEIKQARLLRGNFIVNPQSVYKTHEELWDGEL",Km,purified protein [2],870 ± 250 µM
same,kcat,purified protein [2],0.7052 ± 0.0253 s⁻¹
"OsAKR4-1 (Oryza sativa Japonica Group) (protein, full CDS from leaf cDNA in pET32a (vector tag, about 50 kD), E. coli BL21, Ni-NTA) MAKHFVLNTGAKIPSVGLGTWQSDPGVVGDAVYAAVKAGYRHIDCARMYKNENEVGIALKKLFEEGVVKREDLFITSKLWCDCHAPEDVPESLDKTLSDLQLEYLDLYLIHWPFRVKKGSGISNTEDYIPPDIPSTWGAMEKLYDSGKSRAIGVSNFSSKKLGDLLAVACVPPAVDQVECHPGWQQTKLHNFCQSTGVHLSAYSPLGSPGSTWMNSNVLKESVIISIAEKLGKTPAQVALHWNIQMGHSVLPKSVTEERIKQNIDVYDWSIPEDLLVKFSEIKQVRLLRGDVIVNPHSVYKTHEELWDGEI",Km,purified protein [3],2476 ± 540 µM
same,kcat,purified protein [3],0.676 ± 0.0363 s⁻¹
